± gives the uncertainty stated by the source.
Experiment: protein stability index of a GFP-peptide fusion (yeast GPS) (PSI 1-4); higher = more stable; sorted into four equal gates, so the index is relative within each strain
Method in brief: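 Sequencing reads from sorted gates were used to score each peptide. The library consisted of tiled 17-residue yeast protein peptides fused downstream of GFP on a Cherry-expressing plasmid, pooled and carried in yeast. Mid-log cultures in leucine-free medium were split into four equal gates by GFP/Cherry ratio, and each gate's plasmids were PCR-amplified and Illumina-sequenced. The protein stability index adds up, over all gates, the read frequency multiplied by the gate number.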

| Sequence | protein stability index (doa10∆) | protein stability index (pdr5∆) | protein stability index (san1∆) | protein stability index (ubr1∆) |
| --- | --- | --- | --- | --- |
| TVASSKVGYTLPSHIIS [RPL4A] | 3.19 ± 0.076 | 3.02 ± 0.052 | 3.09 ± 0.035 | 3.25 ± 0.043 |
| QNTSNMNAGGLFGAKPQ [YGR119C/NUP57] | 2.08 ± 0.055 | 3.05 ± 0.063 | 3.34 ± 0.052 | 2.17 ± 0.076 |
| RGFFHLNEALLQCPMLY [CSN12] | 2.06 ± 0.071 | 2.2 ± 0.058 | 1.9 ± 0.13 | 1.99 ± 0.056 |
| VLDKMHARARGPRAVLT [RET1] | 2.88 ± 0.11 | 3.22 ± 0.11 | 3.15 ± 0.067 | 3.09 ± 0.087 |
| PSPISHVAEIRSALEKG [RPB2] | 1.68 ± 0.076 | 1.93 ± 0.066 | 1.68 ± 0.09 | 1.76 ± 0.053 |
| FIYDTEKNGGLGWDLDA [FAS2] | 3.21 ± 0.088 | 2.96 ± 0.12 | 3.31 ± 0.051 | 2.52 ± 0.054 |
| AELIGLQPIFKGEEAKL [SSN3] | 2.54 ± 0.18 | 1.57 ± 0.16 |  | 1.33 ± 0.2 |
| IYNSASKASMQKEQNVN [YCS4] | 1.65 ± 0.13 | 2.11 ± 0.13 | 1.58 ± 0.22 | 2.17 ± 0.077 |
| LLHSKPSLLLQKDQDGR [NAS6] | 3.22 ± 0.22 | 3.33 ± 0.13 |  |  |
| NIKLLNNRMGSYDCTGV [POP1] | 2.85 ± 0.078 | 2.8 ± 0.059 | 2.83 ± 0.071 | 3 ± 0.042 |
| KFNNTQRESQIGAAELN [SNF12] | 3.01 ± 0.097 | 3.03 ± 0.14 | 2.87 ± 0.057 | 3.38 ± 0.09 |
| RKVVFPFQLDVADMLTP [UBP6] | 2.29 ± 0.11 | 2.02 ± 0.12 | 2.57 ± 0.078 | 2.05 ± 0.096 |
| KDTNDHVDKRTKIDQEA [ISW2] | 2.6 ± 0.047 | 2.62 ± 0.048 | 2.77 ± 0.051 | 2.57 ± 0.036 |
| QIAFDLVSSASQQLLEI [RPN2] | 2.22 ± 0.068 | 2.17 ± 0.063 | 1.66 ± 0.11 | 1.69 ± 0.072 |
| AQKRVVSYMMPSLYRLL [SRB8] | 1.18 ± 0.11 | 1.19 ± 0.067 | 1.1 ± 0.12 | 1.29 ± 0.053 |
| VLESHWKQDLTKEEAIK [PUP1] | 2.71 ± 0.18 | 3.15 ± 0.13 | 3.32 ± 0.12 | 3.08 ± 0.15 |
| IDAALDKQYRTAVATLL [SMC3] | 1.87 ± 0.093 | 2.17 ± 0.079 | 2.65 ± 0.12 | 2.82 ± 0.081 |
| AITISNSIDINYKGLPK [SMC1] | 2.48 ± 0.063 | 2.83 ± 0.054 | 2.54 ± 0.073 | 2.98 ± 0.039 |
| TVRVDKASTYGELVLDI [SNF12] | 2.38 ± 0.06 | 2.38 ± 0.053 | 2.02 ± 0.086 | 1.81 ± 0.044 |
| EEREAAASKVKLEEESK [RPC53] | 3.29 ± 0.081 | 3.43 ± 0.095 | 3.37 ± 0.069 | 3.25 ± 0.063 |
| KGGIIASVGDILKTLER [YML031W/NDC1] | 2.99 ± 0.11 | 2.93 ± 0.09 | 3.32 ± 0.092 | 2.87 ± 0.13 |
| ETTIDDLPISSTDNEAI [SMC1] | 2.67 ± 0.069 | 2.7 ± 0.087 | 2.66 ± 0.053 | 2.97 ± 0.058 |
| LKKDIESLRGILHVRAQ [SRP72] | 1.9 ± 0.1 | 2.39 ± 0.12 | 2.11 ± 0.22 | 2.07 ± 0.062 |
| RVIVAGTLDINPDDDYG [FAS1] | 2.38 ± 0.069 | 2.87 ± 0.073 | 2.85 ± 0.06 | 2.51 ± 0.058 |
| QSTQTDLEKTERIVVSY [SMC2] | 2.98 ± 0.052 | 2.94 ± 0.065 | 2.56 ± 0.058 | 2.69 ± 0.044 |

| Sequence | protein stability index (doa10∆) | protein stability index (pdr5∆) | protein stability index (san1∆) | protein stability index (ubr1∆) |
| --- | --- | --- | --- | --- |
| QDSTSENVKIINYLLTL [RPN2] | 3.42 ± 0.074 | 3.1 ± 0.079 | 3.16 ± 0.071 | 2.9 ± 0.12 |
| NENSNCLLSIPKSTKGK [YML103C/NUP188] | 2.04 ± 0.05 | 1.99 ± 0.044 | 2.61 ± 0.05 | 2.35 ± 0.043 |
| RVQLSGKIQENIPFWKH [SRP72] | 2.56 ± 0.071 | 2.44 ± 0.067 | 2.13 ± 0.07 | 2.4 ± 0.041 |
| FDDLLKPVYKGKKLTDE [RET1] |  | 2.85 ± 0.27 | 3.32 ± 0.12 |  |
| VKGETRIQNRVKLGLNS [PRP8] | 2.08 ± 0.16 | 2.7 ± 0.15 | 2.23 ± 0.23 | 2.58 ± 0.15 |
| VGCIFAELIGLQPIFKG [SSN3] | 3.02 ± 0.085 | 2.42 ± 0.097 | 3.06 ± 0.04 | 2.5 ± 0.094 |
| KRVKSYMDKAKQYDNRI [LRP1] | 2.87 ± 0.047 | 2.89 ± 0.042 | 2.92 ± 0.04 | 2.83 ± 0.042 |
| PNFDWDLCSSVLSQFER [ROX3] | 3.12 ± 0.079 | 2.8 ± 0.095 | 2.6 ± 0.08 | 2.59 ± 0.067 |
| VMTISSLEQRTLNPDLF [RPC82] |  | 3.1 ± 0.28 |  |  |
| EINYAFSMDEEFKNMDC [SIR3] | 3.09 ± 0.068 | 3.14 ± 0.053 | 3.22 ± 0.04 | 3.25 ± 0.048 |
| NNNDNDANRNANNIVNI [GRR1] | 2.94 ± 0.052 | 3 ± 0.05 | 2.9 ± 0.036 | 3.04 ± 0.045 |
| IQRFFALHYLVPFIIAA [COB] | 1.39 ± 0.052 | 1.17 ± 0.063 | 1.11 ± 0.15 | 1.09 ± 0.036 |
| VVERHLEDGDVVLFNRQ [RPO31] | 3.41 ± 0.079 | 3.32 ± 0.077 | 3.57 ± 0.069 | 3.38 ± 0.083 |
| PSAEIREAYIENFAKGE [SWP82] | 2.39 ± 0.073 | 2.63 ± 0.084 | 2.58 ± 0.1 | 2.4 ± 0.064 |
| ANMATVPSTTNVNMTVN [MED6] | 2.92 ± 0.099 | 3.08 ± 0.084 |  | 2.93 ± 0.052 |
| SLGSSSTTASGTTATGT [YGR119C/NUP57] | 3.08 ± 0.072 | 3.31 ± 0.076 | 3.08 ± 0.067 | 3.18 ± 0.067 |
| RQMKDVNAPLPTPFKVD [RPN2] | 3.07 ± 0.079 | 3.04 ± 0.066 | 2.79 ± 0.064 | 2.86 ± 0.053 |
| NVSSNIVKNAEQHNLVK [RPS20] | 2.81 ± 0.066 | 3.17 ± 0.057 | 3.26 ± 0.046 | 3.07 ± 0.061 |
| KFKHIDDKYGRKFALEK [SRP72] | 2.59 ± 0.061 | 2.81 ± 0.069 | 3.17 ± 0.054 | 3 ± 0.052 |
| KRINKFLDSVHKQGSSY [POP7] | 2.61 ± 0.04 | 2.52 ± 0.033 | 2.65 ± 0.045 | 2.37 ± 0.031 |
| KIESEDDYILSGESVMD [SRB4] | 3.4 ± 0.17 | 3.5 ± 0.1 | 3.38 ± 0.15 | 2.96 ± 0.075 |
| AIRRDARYNWICDPVHK [RPL15A] | 2.71 ± 0.1 | 3.37 ± 0.12 | 3.25 ± 0.11 | 3.18 ± 0.076 |
| LTLDPRYIWRSLKDLSS [RPN3] | 2.78 ± 0.14 | 2.39 ± 0.29 | 2.82 ± 0.097 |  |
| LPHSPLWELALAFIPNI [YML031W/NDC1] | 1.36 ± 0.084 | 1.25 ± 0.044 | 1.24 ± 0.092 | 1.08 ± 0.05 |
| QLIDQFEWDISNSDNCP [SNF5] | 3.02 ± 0.092 | 3.18 ± 0.12 | 3.21 ± 0.058 | 3.27 ± 0.065 |

Source: the supplement of paper PMC9732359
